The source of these data is patent publication US7491701 (BOYS TOWN NATIONAL RESEARCH HOSPITAL, dated 2009).

Where no end group is shown, it is not given here.

Experiment [1] deals with T1, HS9A_MOUSE, heat shock protein HSP-90 alpha (HSP 86) (mouse, UniProt P07901 2-733).
T1 construct: Native protein captured from mouse brain extract; identified by mass spectrometry and western blot; also called p97; 97-kilodalton protein
Briefly: peptide affinity matrix pull-down from mouse brain extract, Coomassie-stained SDS-PAGE (FIG. 1A). As for the experimental part: FIG. 1A Coomassie stained gel, FIG. 1B Western analysis of an identical gel with antibody to beta-COP. MW=molecular weight markers, Total=13,200 rpm supernatant loaded onto column matrix. E47=sample eluted from OTOF CTERM E47 column matrix. BC1=672 BC1, E48=OTOF CTERM E48, CC1=670 CC1. Brain extracts were made in a Potter-Elvehjem Teflon glass homogenizer using 1 ml/100 mg tissue of TNGD (50 mM TRIS 7.5, 75 mM NaCl, 10 mM EGTA, 2 mM EDTA) plus protease inhibitor 10 ul/ml (Sigma P8340). Protein extracts were absorbed to four Sulfolink-peptide affinity matrices and washed four times with TNGD. The column matrix was transferred to PCR tubes and made 1× with SDS buffer (Pierce Cat. No. 39001) and heated at 95° C. for 5 minutes. Samples were separated on a 4-20% polyacrylamide gel. E47 peptide corresponds to otoferlin exon 47 C-terminal. E48 peptide corresponds to otoferlin exon 48 C-terminal. BC1 and CC1 peptides are specific controls for E47 and E48 respectively where a di-serine replaces di-lysine. Antibody to beta-COP (Ocogene cat # PC175) was used at a dilution of 1:1500.

Experiment [2] concerns the target T2, recombinant human Hsp90α (Stressgen SPP-776, Lot No. B201401) (human, UniProt P07900 1-732).
T2 construct: Bought recombinant protein; also called purified Hsp90α; purified human Hsp90α
Briefly: peptide affinity column, elution with 600 mM NaCl, silver-stained SDS-PAGE (no eluted protein was detected from the E47 column). The procedure: The columns was preabsorbed with 100 μl of 10% BSA for 30 minutes at 4° C. and mixed by rotation. The columns were then washed five times with 0.4 ml of TNGD. Four hundred (400) ng of recombinant human Hsp90α (Stressgen SPP-776, Lot No. B201401) in 100 μl of TNGD was added to each column for 30 minutes at 4° C. and mixed by rotation. The unabsorbed protein was removed by centrifugation. The columns were washed five times with 0.4 ml of TNGD, then eluted with 100 μl TNGD+600 mM NaCl. Samples were analyzed on a 4-20% SDS-PAGE gel followed by silver staining using a BIORAD Silver Stain Plus kit (No. 161-0449) as show in FIG. 5. […] The amount of protein added and eluted was determined by scanning the silver stained gel using a Alpha Imager 2200 gel imaging system. Approximately 10% of the protein corresponding to Hsp90 molecular weight was eluted with 600 mM NaCl+TGND from the E48 column while no eluted protein was detected with the same elution conditions from the E47 column.

B1: OTOF CTERM E47 (peptide)
peptide: CYSLPGYLAKKILGA
modifications: not fully specified (residue 1); also: N-terminal Cys coupled to Sulfolink gel matrix (immobilised)
notes: also called E47 peptide; exon 47 (E47) otoferlin C-terminal peptide
As to B1, the binding result in experiment [1] and in experiment [2] was “no binding” throughout.

B2: OTOF CTERM E48 (peptide)
peptide: CYSLPGYMVKKLLGA
modifications: not fully specified (residue 1); also: N-terminal Cys coupled to Sulfolink gel matrix (immobilised)
notes: also called E48 peptide; exon 48 (E48) otoferlin C-terminal peptide
On to B2, for which the binding result in experiment [1] is “binds”.
